In the nanobody polyreactivity screen of Harvey et al. (2022):

Experiment: yeast display, Sf9 membrane polyspecificity reagent, FACS + sequencing; frameworks hold sequencing errors
Method in brief: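 Polyreactivity labels are assigned by the sorting gate from which each nanobody was recovered. The gates were low and high (top ~1%), set on anti-HA fluorescence for expression and streptavidin fluorescence for reagent binding. Before sorting, galactose-induced (36–48 hours) yeast display cells were stained for 1 hour at 4 °C with 10% biotinylated, detergent-solubilized Sf9 membrane reagent.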

Sequence: QVQLVESGGGLVQAGGSLRLSCAASGSIFIVNAMGWYRPAPGKERELVAAISRSGGRTYYADSVKVRFTISRDNAKNTVYLQMNSLKPEDTAVYYCNARSRARKVAYDYWGQGTQVTVSS
- polyreactivity (PSR sort gate): high polyreactivity

Sequence: QVQLVESGGGLVQAGGSLRLSCAASGRIFGINAMGWYRQAPGKERELVASIDGGGSKNYADSVKGRFTISRDNAKNTVYLQMNSLKPEDTAVYYCAKERSEYRSRHQAYRYDYWGQGTQVTVSS
- polyreactivity (PSR sort gate): low polyreactivity

Sequence: QVQIVESGGGLVQAGGSLRLSCAASGFTFVYYVMGWYRPAPGKERELVAAINSGGGSTYYADSVKGRFTISRDKAKNTVYLQMKSLKPEDTAVYYCNARVRVRLGRNWSSYYYWGQGTQVTVSS
- polyreactivity (PSR sort gate): high polyreactivity

Sequence: QVQLVESGGGLVQAGGSLRLSCAASGRTFRYYAIGWYRQAPGKERELVATISKSGGSTYYADSVKGRFTISRDNAKNTVYLQMNSLKPEDTAVYYCAAVGPYRWYDYWGQGTQVTVSS
- polyreactivity (PSR sort gate): high polyreactivity

Sequence: QFQLVESGGGLVQAGGILRLSCAASGITFRIYAMGWYRQAPGKERELVAGISSSGSTNYADSVKGRFTISRESAKNTVYLQMNSLKPEDTAVYYCAADAFYKFDYWGQGTQVTESS
- polyreactivity (PSR sort gate): high polyreactivity

Sequence: QVQLVESGGGLVQAGGSLRLSCAASGFIFTGYTMGWYRQAPGKERELVARISSGDSTKYADSVKGRFTISRDNAKNNVYLQMNSLKPEDTAVYYCAAYIRNARNGTTYDYWGQGTQVTVSS
- polyreactivity (PSR sort gate): high polyreactivity

Sequence: QVQLVESGGGLVQAGGSLRLSCAASGGIFIANAMGWYRQAPGKERELVAAISSSGGSTYYADSVKGRFTISRDNAKNTVYLQMNSLKPEDTAVYYCAARRSVRRGGDYYWGQGTQVTVSS
- polyreactivity (PSR sort gate): high polyreactivity

Sequence: QVKLVESGGGLVQAGGSLRLSCAASGSTFSSYAMGWYRQAPGKERELVAAISSSGGTSTYADSVKGRFTISRDNAKNTVYLQMNSLKPEDTAVYYCAARQDRLLRDYRHDYWGQGTQVTVSS
- polyreactivity (PSR sort gate): high polyreactivity

Sequence: QVQLVESGGGLVQAGGSLRLSCAASGFTLRYYAMGWYRQAPGKERELVAAITSGGGSTYYADSVKGRFTISRDNAKNTVYLQMNSLKPEDTAVYYCNAQYGSLYYAVVLSNIYNYWGQGTQVTVSS
- polyreactivity (PSR sort gate): high polyreactivity

Sequence: QVQLEESGGGLVQAGGSLRLSCAASGSTISENTMGWYRQAPGKERELVDAISFSGGSTYYADSVKGRFTISRDIAKNTVFLQMNSLKPEDTAVYYCRRFSSSPKLALGEYDFWGQGTQVTVSS
- polyreactivity (PSR sort gate): low polyreactivity

Sequence: QVQLEESGGGLVQAGGSLRLSCAASGSTFGNYAKGWYRQAPGKERELVAAITATGGRTYYADSVKGRFTISRDNAKNTVYLQMNSVKPEDTAVYYCAAGYRTGGDSGDYWGQGTQVTVSS
- polyreactivity (PSR sort gate): high polyreactivity

Sequence: QVQHVESGGGIVQAGGSLRLSCAASGSTFIYNAMGWYRQAPGKERELVAAIDWSGGDTYYADSVKGRFTISRDNAKNTVYLQMNCLKPEDTAVYYCATRWPHYGGYYYWGQGTQVTVSS
- polyreactivity (PSR sort gate): high polyreactivity

Sequence: QVQLVESGGGLVQAGGSLRLSCAASGFTFRWYDMGWYRKAPGKERELVAAIDASDGSTYYADSVKGRFTISRDNAKNTVYLLMNSLKPEDTAVYYCAAEDYQPYFYLYWYDYWGQGTQVTVSS
- polyreactivity (PSR sort gate): high polyreactivity

Sequence: QVQLVESGGGLVQAGGSLRLICAASGSIFGGYAMGWYIQAPGKERELVARITNGGSTYYADSVKGRFTISRDNAKNTVYLQMNSLKPEDTAVYYCNADWYAYPYGYWGQGTQVTVST
- polyreactivity (PSR sort gate): low polyreactivity

Sequence: QVQLVESGGGLVQAGGSLRLSCSASGFIFLDYAMGLYRQAPGKERELVAAISSRGARTYYADSVKGRFTISRDNAKNTVYLQMNSLKPEDTAVYYCAARGPHDRYGYWGQGNQVTVSS
- polyreactivity (PSR sort gate): high polyreactivity

Sequence: QVQLVESGGGLVQAGGSLRLSCAASGRTALRNAMGWYRQAPGKEREFVADIRWSGGSTYYADSVKGRFTISRDKAKNTVYLQMNSQKPEDTAVYYCAAGYVRYPYWYYYWGQGTQVTVSS
- polyreactivity (PSR sort gate): high polyreactivity

Sequence: QVQLVESGGGIVQAGGSLRLRCAASGSTFYLNVMGWYRQAPGQERELVAAISSGDGSTYYADSVKGRFTISRDNAKNTVYLQMNSLKPEDTAVYYCAAEPDTEVDYDYWGQGTQVTVSS
- polyreactivity (PSR sort gate): low polyreactivity

Sequence: QVQLVESGGGLVQAGGSLRLSCAASGSIFRYYAMGWYRQAPGKERELVAVITSSGTSTYYADSVKGRFTISRDNAKNTVYLQMNSLKPEDTAVYYCARRSSGELRYHIYDYWGQGTQVTLSS
- polyreactivity (PSR sort gate): low polyreactivity

Sequence: QVQLVESGGGLVQAGGSLRLSCAASGRIFKRYVMGWYRQAPGKERELVSAISVRGASTYYADSVKGRFTISRDNAKNTVYLQMNSLKPEDTAVYYCATAGYRLLDYWGQGTQVTVSS
- polyreactivity (PSR sort gate): high polyreactivity

Sequence: QVQLVESGGGLVQAGGSLRLSCAASGITLYYYAMGWYRQAPGKEREFVAAITWRGTNTYYADSVKGRFTISRDNAKNTVYLQMNSLKPEDTAVYYCAADYEQRVADYYYWGQGTQVTVSS
- polyreactivity (PSR sort gate): low polyreactivity

Sequence: QVQLVESGGGLVQAGGSLRLSCAASGSTFRHNAMGRYRPAPGKERELVAAITRSGGRTFYADSVKGRFTISRDNAKNTVYLQMNSLKPEDTAVYYCAAERITPYDSSSAYDYWGQGTQVTVSS
- polyreactivity (PSR sort gate): low polyreactivity

Sequence: QVQLVESGGGLVQAGGSLRLSCAASGSIFTLNAMGWYRQAPGKERELVASISKNGGRTYYADSVKGRFTISRDNAKNTVYLQMNCLKPEDTAVYYCAARYYFTPSDGRRYDYWGQGTQVTVSS
- polyreactivity (PSR sort gate): high polyreactivity
